# Experimental data: patent publication US12246062B2, “Recombinant human acid alpha-glucosidase” (Amicus Therapeutics, Inc., priority 2017, dated 2025)
# Marks after values point to notes of the source that are not given here.
# Experiments:
# [1] = Thermostability assay using SYPRO Orange; format: physicochemical
# Protocol: The stability of ATB200 in acidic or neutral pH buffers was evaluated in a thermostability assay using SYPRO Orange, as the fluorescence of the dye increases when proteins denature. […] As summarized in Table 6, the addition of AT2221 increased the melting temperature (Tm) of ATB200 by nearly 10° C.
# [2] = system: normal and Pompe fibroblast cell lines; assay: Cellular uptake of rhGAA in fibroblasts; format: cell-based; details: for concentration that saturates cellular receptors: 16-hr incubation, internalized GAA by 4MU-α-Glucoside hydrolysis; for uptake efficiency constant (Kuptake): extrapolated from uptake results
# Protocol: The relative cellular uptake of ATB200 and Lumizyme® rhGAA were compared using normal and Pompe fibroblast cell lines. Comparisons involved 5-100 nM of ATB200 according to the invention with 10-500 nM conventional rhGAA product Lumizyme® After 16-hr incubation, external rhGAA was inactivated with TRIS base and cells were washed 3-times with PBS prior to harvest. Internalized GAA measured by 4MU-α-Glucoside hydrolysis and was graphed relative to total cellular protein and the results appear in FIGS. 11A-11C.
# ATB200 was also shown to be efficiently internalized into cells. […] ATB200 saturates cellular receptors at about 20 nM, while about 250 nM of Lumizyme® is needed to saturate cellular receptors.
# [3] = design: species or system human; details: in vivo
# Protocol: Preclinical studies were conducted in Gaa knockout mice to evaluate the pharmacokinetics (PK) and efficiency of glycogen reduction at varying ATB200 enzyme replacement therapy (ERT) and AT2221 chaperone doses. […] Study ATB200-02 (NCT02675465) was then designed as an open-label fixed-sequence, ascending dose, first-in-human, phase 1/2 study to evaluate the safety, tolerability, PK, pharmacodynamics (PD), and efficacy of ATB200 co-administered with AT2221 in patients with Pompe disease. FIGS. 19A-19B present the ATB200-02 study design. Ambulatory patients who have previously received enzyme replacement therapy with alglucosidase alfa are referred to as ambulatory ERT-switch (or ERT-switch ambulatory) patients or Cohort 1 patients. Nonambulatory patients who have previously received enzyme replacement therapy with alglucosidase alfa are referred to as nonambulatory ERT-switch (or ERT-switch nonambulatory) patients or Cohort 2 patients. Ambulatory patients who have not previously received enzyme replacement therapy with alglucosidase alfa are referred to as ERT-naïve (or ERT-naïve ambulatory) patients or Cohort 3 patients. Total GAA protein concentrations in plasma for ATB200 at 5 mg/kg, 10 mg/kg, and 20 mg/kg were determined by validated LC-MS/MS quantification of rhGAA-specific “signature” peptide(s) […] (primary) and T50 (confirmatory) for 11 Cohort 1 patients who completed Stages 1 and 2, as well as for five Cohort 2 patients who completed the PK study in Stage 3. For Stage 1, blood samples for plasma total GAA protein concentration were collected prior to the start of ATB200 infusion and at 1, 2, 3, 3.5, 4, 4.5, 5, 6, 8, 10, 12, and 24 hour(s) after the start of infusion. For Stage 2 and Stage 3, blood samples for plasma total GAA protein concentration were collected prior to the start of infusion and at 1, 2, 3, 3.5, 4, 4.5, 5, 6, 8, 10, 12, and 24 hour(s) after the start of infusion.
# [4] = molecular target: T1, CIMPR (Homo sapiens, UniProt P11717); assay: CIMPR plate binding assay
# Protocol: In addition to having a greater percentage of rhGAA that can bind to the CIMPR, it is important to understand the quality of that interaction. Lumizyme® and ATB200 receptor binding was determined using a CIMPR plate binding assay. Briefly, CIMPR-coated plates were used to capture GAA. Varying concentrations of rhGAA were applied to the immobilized receptor and unbound rhGAA was washed off. The amount of remaining rhGAA was determined by GAA activity. […] For Lumizyme®, there is on average only 10% of molecules having a bis-phosphorylated N-glycan. In contrast, on average every rhGAA molecule in ATB200 has at least one bis-phosphorylated N-glycan.
# N-glycan analysis via MALDI-TOF mass spectrometry confirmed that on average each ATB200 molecule contains at least one natural bis-M6P N-glycan structure.
# [5] = system: Gaa KO mice; assay: Single fiber analysis, LAMP1/LC3 co-immunofluorescence; format: in vivo
# Excerpt: FIG. 17 depicts co-immunofluorescent staining of LAMP1 (green) (see for example, “B”) and LC3 (red) (see, for example, “A”) in single fibers isolated from the white gastrocnemius of Gaa KO mice treated with a vehicle, alglucosidase alfa, or ATB200. “C” depicts clearance of autophagic debris and absence of enlarged lysosome. A minimum of 30 fibers were examined from each animal.
# As a result, a significant portion of muscle fibers analyzed (36-60%) from ATB200-treated mice appeared normal or near-normal.
# [6] = molecular target: T1, CIMPR; assay: CIMPR affinity chromatography; format: binding; details: CIMPR affinity column; fraction of total enzyme by GAA activity
# Excerpt: Multiple batches of the rhGAA according to the invention were produced in shake flasks and in perfusion bioreactors using CHO cell line GA-ATB200, the product of which is referred to as “ATB200.” Weak anion exchange (“WAX”) liquid chromatography was used to fractionate ATB200 rhGAA according to terminal phosphate and sialic acid. Elution profiles were generated by eluting the ERT with increasing amount of salt. The profiles were monitored by UV (A280 nm).
# To evaluate the ability of the conventional rhGAAs in Myozyme® and Lumizyme® to interact with the CIMPR, the two conventional rhGAA preparations were injected onto a CIMPR affinity column (which binds rhGAA having M6P groups) and the flow through collected. The bound material was eluted with a free M6 gradient. Fractions were collected in 96-well plate and GAA activity assayed by 4MU-α-glucosidase substrate. The relative amounts of unbound (flow through) and bound (M6P eluted) rhGAA were determined based on GAA activity and reported as the fraction of total enzyme. […] Indeed, only 27% of the rhGAA in Myozyme® and 22% of the rhGAA in Lumizyme® contained M6P that can be productive to target it to the CIMPR on muscle cells.
# [7] = system: Gaa KO mice; assay: Muscle fiber biomarkers LAMP1, LC3, dysferlin; format: in vivo
# Protocol: The therapeutic effects of ATB200 and AT2221 were evaluated and compared against those of Alglucosidase alfa in Gaa KO mice. For the study, male Gaa KO (3- to 4-month old) and age-matched wild-type (WT) mice were used. Alglucosidase alfa was administered via bolus tail vein intravenous (IV) injection. In the co-administration regimen, AT2221 was administered via oral gavage (PO) 30 minutes prior to the IV injection of ATB200. Treatment was given biweekly. Treated mice were sacrificed after 14 days from the last administration and various tissues were collected for further analysis. Table 7 summarizes the study design:
# Tissue samples were also analyzed for biomarker changes following the methods discussed in: Khanna R, et al. (2012), “The pharmacological chaperone AT2220 increases recombinant human acid α-glucosidase uptake and glycogen reduction in a mouse model of Pompe disease,” Plos One 7(7): e40776; and Khanna. […]
# Similarly, intense LC3-positive aggregates in the muscle fibers of untreated Gaa KO mice signify the presence of autophagic zones and autophagy build-up. […] A similar observation was made when the expression of LC3 was assessed using western blot. […]
# Dysferlin, a protein involved in membrane repair and whose deficiency/mistrafficking is associated with a number of muscular dystrophies, w as also assessed.
# [8] = single fibers from white gastrocnemius
# T1 sequence (P11717 41-2491, species assumed): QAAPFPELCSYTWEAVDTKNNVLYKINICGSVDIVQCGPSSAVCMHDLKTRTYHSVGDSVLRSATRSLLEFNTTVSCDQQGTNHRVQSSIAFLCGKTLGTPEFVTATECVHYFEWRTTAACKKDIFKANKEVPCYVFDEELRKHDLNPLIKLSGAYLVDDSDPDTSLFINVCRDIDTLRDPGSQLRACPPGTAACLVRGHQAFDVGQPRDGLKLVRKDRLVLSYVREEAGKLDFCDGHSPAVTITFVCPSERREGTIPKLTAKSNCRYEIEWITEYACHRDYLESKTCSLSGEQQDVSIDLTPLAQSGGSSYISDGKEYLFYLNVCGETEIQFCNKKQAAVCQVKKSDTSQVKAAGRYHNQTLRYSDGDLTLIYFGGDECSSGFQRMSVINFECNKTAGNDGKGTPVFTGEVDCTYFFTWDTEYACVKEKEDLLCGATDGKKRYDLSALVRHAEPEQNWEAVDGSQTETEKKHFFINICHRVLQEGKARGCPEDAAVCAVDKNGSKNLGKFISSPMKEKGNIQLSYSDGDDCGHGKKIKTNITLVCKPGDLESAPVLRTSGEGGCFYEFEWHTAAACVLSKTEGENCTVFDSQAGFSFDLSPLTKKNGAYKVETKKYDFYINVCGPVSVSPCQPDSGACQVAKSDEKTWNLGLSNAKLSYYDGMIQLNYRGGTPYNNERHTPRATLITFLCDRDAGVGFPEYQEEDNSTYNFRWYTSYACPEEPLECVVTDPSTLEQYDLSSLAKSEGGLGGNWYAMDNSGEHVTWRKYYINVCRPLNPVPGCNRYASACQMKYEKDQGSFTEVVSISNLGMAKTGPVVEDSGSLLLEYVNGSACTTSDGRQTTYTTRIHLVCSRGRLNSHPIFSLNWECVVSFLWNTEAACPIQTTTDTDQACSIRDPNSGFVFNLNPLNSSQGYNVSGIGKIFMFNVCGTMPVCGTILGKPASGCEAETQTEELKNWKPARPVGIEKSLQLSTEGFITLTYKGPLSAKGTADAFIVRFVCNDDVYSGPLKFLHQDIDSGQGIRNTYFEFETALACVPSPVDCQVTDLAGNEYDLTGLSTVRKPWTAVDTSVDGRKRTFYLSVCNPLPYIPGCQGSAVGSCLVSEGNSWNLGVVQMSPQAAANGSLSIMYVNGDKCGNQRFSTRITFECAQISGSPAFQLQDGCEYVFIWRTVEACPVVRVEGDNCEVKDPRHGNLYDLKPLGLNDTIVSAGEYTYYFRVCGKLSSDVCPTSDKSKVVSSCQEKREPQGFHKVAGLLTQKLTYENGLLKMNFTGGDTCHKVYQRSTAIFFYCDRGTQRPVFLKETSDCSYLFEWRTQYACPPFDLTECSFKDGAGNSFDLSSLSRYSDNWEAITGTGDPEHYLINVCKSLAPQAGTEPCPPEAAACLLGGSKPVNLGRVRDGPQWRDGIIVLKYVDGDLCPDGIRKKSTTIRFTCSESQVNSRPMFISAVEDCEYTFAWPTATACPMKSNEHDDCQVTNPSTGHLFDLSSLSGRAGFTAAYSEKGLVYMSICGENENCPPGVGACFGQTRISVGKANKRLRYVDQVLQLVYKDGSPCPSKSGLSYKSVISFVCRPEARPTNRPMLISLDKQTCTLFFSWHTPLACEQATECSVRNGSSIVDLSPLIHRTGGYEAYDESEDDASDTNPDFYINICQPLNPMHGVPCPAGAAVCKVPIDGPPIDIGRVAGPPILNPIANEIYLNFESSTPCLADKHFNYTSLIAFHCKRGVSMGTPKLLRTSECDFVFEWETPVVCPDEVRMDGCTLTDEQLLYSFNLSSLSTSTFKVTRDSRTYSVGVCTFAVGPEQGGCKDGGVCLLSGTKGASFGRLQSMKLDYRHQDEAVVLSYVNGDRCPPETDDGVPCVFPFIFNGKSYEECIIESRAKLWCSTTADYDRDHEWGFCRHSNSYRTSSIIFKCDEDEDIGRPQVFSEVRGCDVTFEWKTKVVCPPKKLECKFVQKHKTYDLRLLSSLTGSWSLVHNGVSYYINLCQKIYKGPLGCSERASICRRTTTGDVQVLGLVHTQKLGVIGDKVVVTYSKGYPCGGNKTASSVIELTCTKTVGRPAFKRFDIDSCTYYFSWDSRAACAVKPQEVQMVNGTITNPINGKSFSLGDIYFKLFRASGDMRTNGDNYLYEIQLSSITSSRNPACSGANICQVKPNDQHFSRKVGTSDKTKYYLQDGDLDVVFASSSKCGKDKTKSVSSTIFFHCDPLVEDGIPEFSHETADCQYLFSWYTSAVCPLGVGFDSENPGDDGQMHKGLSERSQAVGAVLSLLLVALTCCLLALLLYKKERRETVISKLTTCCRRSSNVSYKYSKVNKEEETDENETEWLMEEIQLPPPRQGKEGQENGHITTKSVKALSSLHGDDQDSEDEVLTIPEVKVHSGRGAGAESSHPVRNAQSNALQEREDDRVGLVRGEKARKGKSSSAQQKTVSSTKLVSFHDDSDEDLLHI
molecule,measurement,setting,value
"CCCCN1C[C@H](O)[C@@H](O)[C@H](O)[C@H]1CO [AT2221, (2R,3R,4R,5S)-1-butyl-2-(hydroxymethyl)piperidine-3,4,5-triol, reference compound]",stabilization of ATB200,[1]; pH 7.4,stabilized ATB200 at pH 7.4 in a concentration-dependent manner
"ATB200: rhGAA with a high content of N-glycans bearing mono-M6P and bis-M6P, produced from a GA-ATB200 CHO cell line",concentration that saturates cellular receptors,[2],about 20 nM
same,internalization into normal and Pompe fibroblast cells,[2]; compared with Lumizyme,internalized to a greater degree than the conventional rhGAA product Lumizyme®
same,uptake efficiency constant (Kuptake),[2],2-3 nm
same,increase in distribution half-life (α-phase),[3]; human,40%
same,increase in partial AUC from time to maximum plasma concentration to 24 hours post-dose,[3]; human,42.2%
same,"AUC ratio, signature peptide T50 vs T09",[3],1.00
same,dose proportionality of ATB200 levels,[3],slightly greater-than-dose proportional
same,"plasma total GAA protein exposure, ERT-naive (Cohort 3) vs ERT-switch (Cohort 1)",[3],no statistically significant difference
same,binding to CIMPR compared with Lumizyme,"[4]; CIMPR-coated plates, varying rhGAA concentrations",bound to CIMPR significantly better than Lumizyme®
same,Kd,"[4]; M6P receptor plate binding assays, read-out: Ku, high-affinity binding to CIMPR",2 to 4 nM
same,area with autophagic buildup,[5]; single fibers,reduced to various degrees
same,Fibers with Autophagy Buildup,[5]; [8],40-64%*
same,Tm,[1]; pH 5.2,67.3 °C
same,Tm,[1]; pH 7.4,56.2 °C
same,increase of melting temperature (Tm) on addition of AT2221,[1]; pH 7.4,~10 °C
same,Tm,[1]; pH 7.4 + 10 μM AT2221,61.6 °C
same,Tm,[1]; pH 7.4 + 30 μM AT2221,62.9 °C
same,Tm,[1]; pH 7.4 + 100 μM AT2221,66.0 °C
"Lumizyme®: conventional rhGAA product containing alglucosidase alfa, marketed by Genzyme [reference compound]",concentration that saturates cellular receptors,[2],about 250 nM
same,uptake efficiency constant (Kuptake),[2],56 nM
same,rhGAA that binds to the CIMPR,[6],22%
same,rhGAA that did not bind to the CIMPR,[6],78%
"Myozyme®: conventional rhGAA product containing alglucosidase alfa, marketed by Genzyme",rhGAA that binds to the CIMPR,[6],27%
same,rhGAA that did not bind to the CIMPR,[6],73%
same,lysosome size and autophagic buildup compared to vehicle-treated mice,[5]; single fibers,did not show any significant difference
"[199-arginine,223-histidine]prepro-α-glucosidase (human) [alglucosidase alfa, reference compound]",effect on autophagy,[7],modest
same,Fibers with Autophagy Buildup,[5]; [8],>90%
same,Fibers with Normal or Near-normal Appearance,[5]; [8],<10%
